Assay results from publication PMC8528806, “Enzyme promiscuity in natural environments: alkaline phosphatase in the ocean” (The ISME Journal, 2021).

B1: PhoA (APase; MADE1013045) (Alteromonas mediterranea DE) (protein)
chain: MIKQFVRTSILSCASIAVLAGCGITESAHQPANHNRAQLQGVPKNIIMVVADGMGPAYTTAYRNYVDDPTTPNIEPVVFDDILVGNASTYPAQVSGYVTDSAAAATALASGVKSYNGAIGVDVNKQPVNSVMYYAKSKSMRTGLAVTSQIVHATPASYIAHNESRKNYNEIADDFFDVRVNGEFVADVMLGGGTSYFEREDRDILAQFIDAGYEYADSYNRLASVPAGSNVLGLFAPVALPAVLDDKRKNRLKYLTKNAIKHLENDNGFFLLVEASQVDWAGHANDIASAMAEMHDLAITMEYLRDYVEANPDTLVVLTADHSTGGLTIGANGDYRWSPEHLKSLSASVMTIALEMANEENPGEFVAAKLGLSLTEQELATLNSISNQDDKTRLSAVKTFLDTKTNTGWTTGGHTGVDVEVFAFGAGYQSFMGQIDNTDIAKKIFSFIDKKQPAKIAFPSKKVSTNIELTSDEDDDELCDFKEDWRCN
notes: full-length 1467-bp synthetic gene, pETM-14, N-terminal His6-PreScission 3C, tag cleaved, expressed in E. coli BL21(DE3)

What was measured:
[1] = biological target: T1, PhoA (APase; MADE1013045) (Alteromonas mediterranea, UniProt F2G8N3); experiment: p-nitrophenol release, absorbance […] nm, Michaelis-Menten fit; format: biochemical; conditions: read-out: KM (μmol l^-1); 100 mM Tris pH 8.2, 24 °C, 100 µM MgCl2; 10 nM enzyme
T1 construct: gene MADE_1013045; full-length 1467-bp synthetic gene, pETM-14, N-terminal His6-PreScission 3C, tag cleaved, expressed in E. coli BL21(DE3)
T1 sequence (F2G8N3 1-488): B1 chain

[2] = substrate: O=[N+]([O-])c1ccc(OP(=O)(O)Oc2ccc([N+](=O)[O-])cc2)cc1; experiment: purified protein; format: biochemical, Alteromonas mediterranea; conditions: 100 mM Tris pH 8.2, 24 °C, 100 µM MgCl2, 10 nM enzyme
[3] = substrate: O=[N+]([O-])c1ccc(OP(=O)(O)O)cc1; experiment: purified protein; format: biochemical, Alteromonas mediterranea; conditions: 100 mM Tris pH 8.2, 24 °C, 100 µM MgCl2, 1 nM enzyme, text rounds KM to 90 µM

| Molecule | Km [1] [µM] | Km [2] [µM] | kcat [2] [s⁻¹] | kcat/Km [2] [M⁻¹ s⁻¹] | Km [3] [µM] | kcat [3] [s⁻¹] | kcat/Km [3] [M⁻¹ s⁻¹] |
| --- | --- | --- | --- | --- | --- | --- | --- |
| COP(=O)(OC)Oc1ccc([N+](=O)[O-])cc1 [Paraoxon-methyl] | 0.015 |  |  |  |  |  |  |
| B1 |  | 0.3 ± 0.1 | 0.017 ± 0.001 | 55000 ± 8000 | 94 ± 35 | 0.5 ± 0.03 | 4800 ± 800 |
